The series “crystal structure” deals with the molecule itself. As to the kind of experiment: crystal structure.
The target of series [1] is T1, MBP-VPS20 α1 - α4 (residues 1-145) (human, UniProt Q96FZ7 1-145).
T1 sequence (looked up): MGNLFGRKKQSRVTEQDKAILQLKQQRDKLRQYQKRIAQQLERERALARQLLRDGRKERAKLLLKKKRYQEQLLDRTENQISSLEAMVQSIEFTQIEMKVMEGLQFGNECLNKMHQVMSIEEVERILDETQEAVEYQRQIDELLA
As to the kind of experiment: SPR.

Regarding SRVTEQDKAILQLKQQRDKLRQYQKRIAQQLERERALA (domain or fragment, human, UniProt Q96FZ7 11-48, looked up) [VPS20 α1 (residues 11-48)], the binding result in the series “crystal structure” is recorded as “binds”.

B1: VPS25c, C-terminal winged helix (WH2) domain of human VPS25 (residues 102-176) (domain or fragment, UniProt Q9BRG1 102-176, looked up)
chain: RRPEEWGKLIYQWVSRSGQNNSVFTLYELTNGEDTEDEEFHGLDEATLLRALQALQQEHKAEIITVSDGRGVKFF
For orientation: Kd means the concentration at which binding is half-saturated. The low end stands for higher affinity, the high end for lower affinity. As for B1, the equilibrium dissociation constant (Kd) in series [1] was found to be 2.5 µM.

The record behind these values is paper PMC2749878 (Developmental cell, 2009).
